Measurements: the nanobody polyreactivity screen of Harvey et al. (2022)

Experiment: yeast display, Sf9 membrane polyspecificity reagent, FACS + sequencing; frameworks hold sequencing errors
Method in brief: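 Sorting gates, low and high (top ~1%), were placed on anti-HA fluorescence to track expression and on streptavidin fluorescence to track reagent binding. A clone's polyreactivity label is taken from the gate it came out of. The reagent was 10% biotinylated, detergent-solubilized Sf9 membrane, applied for 1 hour at 4 °C to galactose-induced yeast display cells.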

Sequence | polyreactivity (PSR sort gate)
QVQLVESGGGLVQAGGSLRLSCAACGRTFRFYAMGWYRKAPGKERELVAAISKSGGSTYYADSVKGRFTISRDNEKNTVYLQMNSLKPEDTAVYYCAAQTYLYDYKYWGQGTQVTVSS | high polyreactivity
QVQLVESGGGLVQAGGSLRLSCAACGSIFEAYAMGWYRKAPGKERELVAVINYSGGSTYYADSVKGRFTISRDNAKNTVYLQMNSLKPEDTAVYYCAADTVRPWYAYKAHDYWGLGTQVTVSS | low polyreactivity
QVQLVESGGGLVQAGGSLRLSCAACGSIFPAYAMGWYRQAPGKERELVASITGSGGSTYYADSVKGRFTISRDNAKNTVYLQMNSLKPEDTAVYYCNARYYVYSATVDRYYHFYYWGQGTQVTVSS | high polyreactivity
QVQLVESGGGLVQAGGSLRLSCAACGSIFPGYAMGWYREAPGKERELVAAITWNGGRTYSADSVKGRFTISRDNAKNTVYLQMNSLKPEDTAVYYCAVAGYAGLSVKYGYWGQGTQVTVSS | high polyreactivity
QVQLVESGGGLVQAGGSLRLSCAACGSIFPRNAMGWYIQAPGKDRALVASLNSGGSTNYADSVKGRFTISRDNAKYTVYLHMNSLKPEDSAGYYCAAVRPWWRNKPQWPRYDYWGQGTQVTVSS | low polyreactivity
QVQLVESGGGLVQAGGSLRLSCAACGSLFGYNAMGWYRQAPGKERELVAAISYSGGSTYYADSVKGRFTISRDNAKNTDFLQMNSLKPEETAVYYCNAYRRYKDEDYWGQGTQVTVSS | high polyreactivity
QVQLVESGGGLVQAGGSLRLSCAACGSTFIPNGMGLYRQAPGKERELVAAITQDGGSTYYADSVKGRFTISRDNAKNTVYLQMNSLKPEDTAVYYCAASAGPYYEYGYWGQGTQVTVSS | low polyreactivity
QVQLVESGGGLVQAGGSLRLSCAACGSTFWYYAMGWYRQAPGKEREFVAAISKSGDSTNYADSVKGRFTISRDNAKNTVYLQMNSLKPEDTAVYYCAATRSSGRFRYYYWGQGTQVTVSS | high polyreactivity
QVQLVESGGGLVQAGGSLRLSCAAMGWYRQAPGKERELVATITWSGGSTYYADSVKGRFTISRDNAKNTVYLQMNSLKPEDTAVYYCNARATLLSPANTIRGYDYWGQGTQVTVSS | low polyreactivity
QVQLVESGGGLVQAGGSLRLSCAAMGWYRQAPGKERELVATLTWSGGSTYYADSVKGRFTISRDNAKNPVYLQMNRLKPEDTAVYYCNARATLLSPANTIRGYDYWGQGTQVTVSS | low polyreactivity
QVQLVESGGGLVQAGGSLRLSCAASAFIFRYYAIGGYRQAPGNERELVAAIARSGGSTYYADSVKGRFTISRDNAKNTVYLQMNSLKPEVTAVYYCNRGDVIGRQYDSAYGYWGQGTQVTVSS | high polyreactivity
QVQLVESGGGLVQAGGSLRLSCAASAFIYSFNAMGWYSQAPGKERELVAAISRSGGSTRYADSVKGRFTISRDTAKNTVYLQMNSLKPEYTAVYYCATDASPVRKRYDYWGQGTQVTVSS | high polyreactivity
QVQLVESGGGLVQAGGSLRLSCAASAFIYSSYAMGWYRQAPGKEMELVAAISYSGGSTYYADSVKGRFTISRDTAKNTVYLQMNRLKPEDTAVYYCAAELQIKIGFYTGEYEYYYWGQGTQVTVSS | high polyreactivity
QVQLVESGGGLVQAGGSLRLSCAASAFTFDPYARGWYRHAPGKERELDAANSWSGGSTYYADSVKGRFTISRDHAKNSVYLQMNSLKPEDTAVYYCAAEWYNSAYYEYDYWGQGTQVTVSS | high polyreactivity
QVQLVESGGGLVQAGGSLRLSCAASAFTFPGNAMGWYRHATGKERQLVAAISGTGGSTYYADSVKGRFTISRDNAKNTVYLQMNSLKPEDTAVYYCAARLGGRRRFGYWGQGTQVTVSS | high polyreactivity
QVQLVESGGGLVQAGGSLRLSCAASAIIFYTYAMGWYRQAPGKERELVAAISSGGRTTYADSVKGRFTISRDNAKTTVYFQMNSLKPEDTAVYYCAARLFRSRHAASPFIRSIYGYWGQGTQVTVSS | high polyreactivity
QVQLVESGGGLVQAGGSLRLSCAASARIFSPYAMGWYRQAPGKERELVAAITSASSTYYADSVKGRFTISRDNAKNTLYLQMNSLKPEDTAVYYCAASYWRYGSAFDYWGQGTQVTVSS | high polyreactivity
QVQLVESGGGLVQAGGSLRLSCAASASIFADNTMGWYRQAPGKERELVAAITSSGRTYYADSVKGRFTISLDNAKNTVYLQLNSLKPEDTAVYYCAAVIYFHDYSPYYYWGQGTQVTVSS | high polyreactivity
QVQLVESGGGLVQAGGSLRLSCAASASIFYRYAMGWYRQAPGKERELVAAITRSGARTYYADSVKGRFTISRDNAKNTVYLQMNSLKPEDNAVYYCAADDPGYYQVEYWGQGTQVTVSS | high polyreactivity
QVQLVESGGGLVQAGGSLRLSCAASASIFYYYAMGWYRQEPGKERELVAALSDSGSTNYADSVKGRFTISRDNAKNTVYLQLNSLKPEDTAVYYCAAGFGSRRYRGVYYKMYYRGQGTQVTVSS | high polyreactivity
QVQLVESGGGLVQAGGSLRLSCAASASILGSNAMGWYSQAPGKEREFVAAITWTGGSTYYADSVKGRFTISRDNAKNTVYLQMNSLKPEDSAVYYWAKDVKYVKMDDWGQGTQVTVSS | low polyreactivity
QVQLVESGGGLVQAGGSLRLSCAASASNFGYNAMGRYRQAPGKERELVAVITDSGGSTYYADSVKGRFTISRDNAKNTVYLQMNSLKPEDTAVYYCAKVYGLVVRGHVILSGFDYWGQGTQVTVSS | low polyreactivity

Sequence | polyreactivity (PSR sort gate)
QVQLVESGGGLVQAGGSLRLSCAASASNSNGMTWYGIDRRLGRKELVAGIRSAGSTNYADSVKGRFTISRDNAKNTFYLQMNSLKPEDTAGYYCAKDYRWVWRKYGYWGQGTQVTVSS | low polyreactivity
QVQLVESGGGLVQAGGSLRLSCAASASTFYGYAMGRFRQAPGKERELVAAISSGGSTYYADSVKGRFTISRDNAKNTVYVQMNSLKPEVTAVYYCAAYSYPKKYGYWGQGTQVTVSL | high polyreactivity
QVQLVESGGGLVQAGGSLRLSCAASASTFYSYTMGWSRQAPGKERELVAAISRSGGRTYYADSVKGRFTISRDNAKNTVYLQMNSLKPEDTAVYYCAARWLGVDDYEYWGQGTQVTVSS | high polyreactivity
QVQLVESGGGLVQAGGSLRLSCAASASTLRRYAMGLYRQAPGQERELVAAISGTGSRTYYADSVKGRFTISRDTAKITVYLQMNSLKPEDSAVYYCNASPYRLTENDYWGQGTQVTVSS | high polyreactivity
QVQLVESGGGLVQAGGSLRLSCAASAYTFYAMGWYRQAPGKERELVAAITYRGARTYYADSVKRRFTISRDNEKNTVYLQMNSLKPEYTAVYYCNADYWGQGTQVTVSS | low polyreactivity
QVQLVESGGGLVQAGGSLRLSCAASCRIFSYYVMGWYRQAPGKERELVAAISYRGGGTYYADSVKGRFTISRDNAKNNFYLQMNSLKPEDTAVYYCNADTYSNTYRAYDYWGQGTQVTVSS | low polyreactivity
QVQLVESGGGLVQAGGSLRLSCAASFYVYAMGWYRQAPGKERELVAAITYSGGGTYYADSVKGRFTISRDNAKNTVYLQMNSLKPEDTAVYYCAADDYFYDYDYWGQGTQVTVSS | low polyreactivity
QVQLVESGGGLVQAGGSLRLSCAASGAIFPSYVMGWYRPAPGKERELVAAITKSTGTTYYADSVKGRFTISRDNAKNTVYLQMNSLKPEDTAVYYCAASGSWSTNTAIYKFYYWGQGTQVTVSS | low polyreactivity
QVQLVESGGGLVQAGGSLRLSCAASGAIFSWNAMGWYRQAPGKERELVATITWNGGRTYYADSVKGRFTISRDNAKKTVYLQMNSLKPEATAVYYCAARNTQPASYGYGYWGQGTQVTVSS | high polyreactivity
QVQLVESGGGLVQAGGSLRLSCAASGAILYGNAMGWYRQAPGKERELVAAISYSGGRTYYADSVKGRFTISRDNAKYTVYLQMNSLKPEDTAVYYCASLHSGRVQNFDYWGQGTQVTVSS | high polyreactivity
QVQLVESGGGLVQAGGSLRLSCAASGATFPVYAMGWYRQAPGKEWELVAAISRSGASTYYADSVKGRFTISRDNAKNTVYLQMNSLKPEDTAVYYCARGYQGRLKYEYWGQGTQVNVSS | low polyreactivity
QVQLVESGGGLVQAGGSLRLSCAASGATFWYNAMRWYREAPGKERELVAAITWTGDGTYYADSVKGRFTISRDNAKNTVYLQMNSLKPEDTAVYYCAAAYFQWSTSIVGLDAWYDYWGQGSQVTVSS | low polyreactivity
QVQLVESGGGLVQAGGSLRLSCAASGCIFWKDAMGWYRQAPGKERELVAAITSGGGTYYADSVKGLFTISRDNAKNTVYLQMNSLKPEDTAVYYCAARSLSVARRRPYYYWGQGTQVTVSS | high polyreactivity
QVQLVESGGGLVQAGGSLRLSCAASGFDGYAMGWYRQAPGKERELVAASSWSGSRTYYADSVKGRFTISRDNAKNTVYLQMNSLKPEDTAVYYCNAVLRYSIYPSYSFSYVGYYYWGHGTQVTVSS | high polyreactivity
QVQLVESGGGLVQAGGSLRLSCAASGFICGLNAMGLYRQAPGKERELVAAIRSASSTNYADSVKGRFTISRDNAKNTVYLQMNSLKPEDTAVYYCAAEYVTYQQGFWGYDYWGQGTQVTVSS | low polyreactivity
QVQLVESGGGLVQAGGSLRLSCAASGFIFADNAMGWYRQAPGKERELVAGITSGGITNYADSVKGRFTISRDNAKNTVYLQMNSLKQVDTAVYYCAVYYRRWFSRYDYWGQGTQVTVSS | low polyreactivity
QVQLVESGGGLVQAGGSLRLSCAASGFIFADNPMGWYRQAPGKERELVAGITSGGITNYADSVKGRFTISRDNAKNTVYLQMNSLKPEDTAVYYCAVYYRRWFSRYDYWGQGTQVTVSS | low polyreactivity
QVQLVESGGGLVQAGGSLRLSCAASGFIFADYAMGWYRPAPGKERELVAAISSGGRTKYADSVKGRFTISRDNAKNTVYLQMNSLIPDDTAVYYCAKALRRVPRIQAYPVPQGDYWGHGTQVTVSS | high polyreactivity
QVQLVESGGGLVQAGGSLRLSCAASGFIFADYAMGWYRQAPGKARELVAAINRGASTYYADSVKGRFSISRDNAKNTVYFQMNSLKPEDTAVYYCAAAGYSRGGRGGYWGHGTQVTVSS | high polyreactivity
QVQLVESGGGLVQAGGSLRLSCAASGFIFADYTMGWSRQAPGQERELVAVITSGGSTHYADSVKGRFTISRDNAKNTVYLQMNSLKPEDTAVYYCAARSYRPTRGDYWGQGTKVTVSS | high polyreactivity
QVQLVESGGGLVQAGGSLRLSCAASGFIFAEYAMGWYRQAPGKEREFVASITYSGGRTYYADSVKGRFTISRDNAKNTVYLQMNSLKPEDTAVYYCATARYRYHYYSWGQGTQVTVSS | high polyreactivity
